Measured values taken from US20050208046A1.

Target: FLAG-TWEAKR (human)

- BrdU incorporation of transfected HUVEC: 6 fold
Substance: M2 anti-FLAG monoclonal antibody cross-linked with goat anti-mouse IgG (tool reagent)
